{"source": "paper PMC7835222", "about": "“PRMT3 interacts with ALDH1A1 and regulates gene-expression by inhibiting retinoic acid signaling” (Communications Biology, 2021)", "binders": {"B1": {"name": "His-tagged ALDH1A1 full length (pET28a-AL-FL) (enzyme, human, UniProt P00352 1-501, looked up)", "chain": "MSSSGTPDLPVLLTDLKIQYTKIFINNEWHDSVSGKKFPVFNPATEEELCQVEEGDKEDVDKAVKAARQAFQIGSPWRTMDASERGRLLYKLADLIERDRLLLATMESMNGGKLYSNAYLNDLAGCIKTLRYCAGWADKIQGRTIPIDGNFFTYTRHEPIGVCGQIIPWNFPLVMLIWKIGPALSCGNTVVVKPAEQTPLTALHVASLIKEAGFPPGVVNIVPGYGPTAGAAISSHMDIDKVAFTGSTEVGKLIKEAAGKSNLKRVTLELGGKSPCIVLADADLDNAVEFAHHGVFYHQGQCCIAASRIFVEESIYDEFVRRSVERAKKYILGNPLTPGVTQGPQIDKEQYDKILDLIESGKKEGAKLECGGGPWGNKGYFVQPTVFSNVTDEMRIAKEEIFGPVQQIMKFKSLDDVIKRANNTFYGLSAGVFTKDIDKAITISSALQAGTVWVNCYGVVSAQCPFGGFKMSGNGRELGEYGFHEYTEVKTVTVKISQKNS", "notes": "Retinal dehydrogenase 1 (ALDH1A1), human, full length; pET28a vector; also called His-tagged AL-FL"}}, "target": "T1, GST-tagged PRMT3 full-length protein (pGEX-PR-FL) (human, UniProt O60678-1 1-531)", "T1 construct": "Protein arginine methyltransferase 3 (PRMT3), human, full length; pGEX-6P2 vector; the legends mark a degraded GST-PRMT3 band beside the full-length one; also called GST-PRMT3; GST-PRMT3-FL", "T1 sequence (O60678 whole entry)": "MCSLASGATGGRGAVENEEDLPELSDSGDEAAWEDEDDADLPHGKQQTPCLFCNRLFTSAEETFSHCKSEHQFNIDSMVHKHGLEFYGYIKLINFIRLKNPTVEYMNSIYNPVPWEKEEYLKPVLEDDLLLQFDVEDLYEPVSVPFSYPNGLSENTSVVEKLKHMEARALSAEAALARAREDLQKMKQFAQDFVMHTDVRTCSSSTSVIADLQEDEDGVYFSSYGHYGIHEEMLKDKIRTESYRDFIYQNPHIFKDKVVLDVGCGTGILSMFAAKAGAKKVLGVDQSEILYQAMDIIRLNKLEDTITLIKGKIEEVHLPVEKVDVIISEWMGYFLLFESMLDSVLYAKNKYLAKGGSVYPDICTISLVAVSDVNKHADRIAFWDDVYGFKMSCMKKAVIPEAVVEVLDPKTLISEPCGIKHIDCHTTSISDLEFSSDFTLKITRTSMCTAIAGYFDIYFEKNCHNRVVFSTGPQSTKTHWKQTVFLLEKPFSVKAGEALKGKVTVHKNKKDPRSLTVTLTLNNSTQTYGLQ", "assay": "pull-down; 15 µg GST-PRMT3 (wild type or mutant) on Glutathione Sepharose, 15 µg His-tagged AL-FL in solution, with or without 200 µM SAM or SAH; 20 mM HEPES pH 7.5, 150 mM KCl, 0.2 mM DTT, 1 mM EDTA, 10% glycerol; 4 °C, 10 h; blot with His antibody", "conditions": "both partners purified"}
{"binder": "B1", "values": [{"measurement": "binding result", "result": "binds"}]}
